Drawing on the RNAGym collection of RNA variant scans (doi:10.7554/elife.80360), this text covers self-cleavage for 64 variants.

Sequences and labels used below:
B1: HDV Ribozyme (parent)
chain: GGCCGGCAUGGUCCCAGCCUCCUCGCUGGCGCCGGCUGGGCAACAUUCCGAGGGGACCGUCCCCUCGGUAAUGGCGAAUGGGACCCA

The variants in this data set derive from B1. The data set can be described thus: self-cleavage, relative activity (ratio to wild type); higher = more cleavage; co-transcriptional.
In the case of GGCCGGCAUGGUCCCAGCCUCCUCGGUGGCGCCGGCUGGGCAACAUUCCGAGGGGACCGUCCCCUCGCUAAUGGCGAAUGGGACCCA, the self-cleavage turned out to be 1.07. On to GGCCGGCAUGGUCCCAGCCUCCUCGGUGGCGCCGGCUGGGCAACAUUCCGAGGGGACCGUCCCCUCGUUAAUGGCGAAUGGGACCCA, for which the self-cleavage is 0.686. Consider GGCCGGCAUGGUCCCAGCCUCCUCGGUGGCGCCGUCUGGGCAACAUUCCGAGGGGACCGUCCCCUCGGUAAUGGCGAAUGGGACCCA, for which the self-cleavage stood at 0.499.

Take GGCCGGCAUGGUCCCAGCCUCCUCGGUGGCGCCGACUGGGCAACAUUCCGAGGGGACCGUCCCCUCGGUAAUGGCGAAUGGGACCCA: the self-cleavage is 0.326. GGCCGGCAUGGUCCCAGCCUCCUCGGUUGCGCCGGCUGGGCAACAUUCCGAGGGGACCGUCCCCUCGGUAAUGGCGAAUGGGACCCA: the self-cleavage is 0.0396. For GGCCGGCAUGGUCCCAGCCUCCUCGGUCGCGCCGGCUGGGCAACAUUCCGAGGGGACCGUCCCCUCGGUAAUGGCGAAUGGGACCCA, the self-cleavage was 0.0504. GGCCGGCAUGGUCCCAGCCUCCUCGGUGGCGCCGGCUGGGCAACAUUCCGAAGGGACCGUCCCCUCGGUAAUGGCGAAUGGGACCCA: the self-cleavage is 0.867. As to GGCCGGCAUGGUCCCAGCCUCCUCGGUGGCGCCGGCUGGGAAACAUUCCGAGGGGACCGUCCCCUCGGUAAUGGCGAAUGGGACCCA, the self-cleavage worked out at 1.04. For the variant GGCCGGCAUGGUCCCAGCCUCCUCGGUGGCGCCGGCUGGGCAACAUUCCGAGGGGACCGUCCCCUCGGUAAUGGCGAGUGGGACCCA, the self-cleavage stood at 0.633. Regarding GGCCGGCAUGGUCCCAGCCUCCUCGGUGGCGCCGGCUGGGCAACAUUCCGAGGGGACCGUCCCCUCGGUAAUGGCGAUUGGGACCCA, the self-cleavage turned out to be 0.401. The same measure for GGCCGGCAUGGUCCCAGCCUCCUCGGUGGCGCCGGCUGGGCAACAUUGCGAGGGGACCGUCCCCUCGGUAAUGGCGAAUGGGACCCA: 1.02; for GGCCGGCAUGGUCCCAGCCUCCUCGGUGGCGCCGGCUGGGCAACAUUUCGAGGGGACCGUCCCCUCGGUAAUGGCGAAUGGGACCCA: 0.877. GGCCGGCAUGGUCCCAGCCUCCUCGGUGGCGCCGGCUGGGCAACAUUCCGAGGGGACCGUCGCCUCGGUAAUGGCGAAUGGGACCCA: the self-cleavage turned out to be 0.516. The same measure for GGCCGGCAUGGUCCCAGCCUCCUCGGUGGCGCCGGCUGGGCAAAAUUCCGAGGGGACCGUCCCCUCGGUAAUGGCGAAUGGGACCCA: 0.554. The result for GGCCGGCAUGGUCCCAGCCUCCUCGGUGGCGCCGGCUGGGCAAGAUUCCGAGGGGACCGUCCCCUCGGUAAUGGCGAAUGGGACCCA reads 0.554; that for GGCCGGCAUGGUCCCAGCCUCCUCGGUGGCGCCGGCUGGGCAACAUUCCGAGGGGACCGUCCGCUCGGUAAUGGCGAAUGGGACCCA, 0.653. For GGCCGGCAUGGUCCCAGCCUCCUCGGUGGCGCCGGCUGGGCAACAUUCCGAGGGGACCGUCCACUCGGUAAUGGCGAAUGGGACCCA, the self-cleavage worked out at 0.748. As for GGCCGGCAUGGUCCCAGCCUCCUCGGUGGCGCCGGCUGGGCAACAUUCCGAGGGGACCGUCCUCUCGGUAAUGGCGAAUGGGACCCA, the self-cleavage came to 0.743.

As to GGCCGGCAUGGUCCCAGCCUCCUCGGUGGCGCCGGCUGGGCAACAUUCCGAGGGGACCGUCCCCUCGGUAAUGGCGAAUGGGACCCU, the self-cleavage amounted to 0.976.

As for GGCCGGCAUGGUCCCAGCCUCCUCGGUGGCGCCGGCUGGGCAACAUUCCGAGGGUACCGUCCCCUCGGUAAUGGCGAAUGGGACCCA, the self-cleavage is 0.975. Consider GGCCGGCAUGGUCCCAGCCUCCUCGGUGGCGCCGGCUGGGCAACAUUCCGAGGGGACCGUCCCAUCGGUAAUGGCGAAUGGGACCCA, for which the self-cleavage stood at 0.554.

Regarding GGCCGGCAUGGUCCCAGCCUCCUCGGUGGCGCCGGCUGGGCAACAUUCCGAGGGGACCGUCCCUUCGGUAAUGGCGAAUGGGACCCA, the self-cleavage turned out to be 0.99. Consider GGCCGGCAUGGUCCCAGCCUCCUCGGUGGCGCCGGCUGGGCAACAUUCCGAGAGGACCGUCCCCUCGGUAAUGGCGAAUGGGACCCA, for which the self-cleavage amounted to 1.02. As for GGCCGGCAUGGUCCCAGCCUCCUCGGUGGCGCCGGGUGGGCAACAUUCCGAGGGGACCGUCCCCUCGGUAAUGGCGAAUGGGACCCA, the self-cleavage was found to be 0.237. Take GGCCGGCAUGGUCCCAGCCUCCUCGGUGGCGCCGGCUGGGCAACAUUCCGAGGGGACCGUCCCCUUGGUAAUGGCGAAUGGGACCCA: the self-cleavage came to 1.16. The same measure for GGCCGGCAUGGUCCCAGCCUCCUCGGUGGCGCCGGCUGGGCAACAUUCCGAGGGGACCGUCCCCUGGGUAAUGGCGAAUGGGACCCA: 1.1; for GGCCGGCAUGGUCCCAGCCUCCUCGGUGGCGCCGGCUGGGCAACAUUCCGAGGGGAGCGUCCCCUCGGUAAUGGCGAAUGGGACCCA: 1.04; for GGCCGGCAUGGUCCCAGCCUCCUCGGUGGCGCCGGCUGGGCAACAUUCCCAGGGGACCGUCCCCUCGGUAAUGGCGAAUGGGACCCA: 0.997.

In the case of GGCCGGCAUGGUCCCAGCCUCCUCGGUGGCGCCGGCUGGGCAACAUUCCUAGGGGACCGUCCCCUCGGUAAUGGCGAAUGGGACCCA, the self-cleavage amounted to 1.05. Consider GGCCGGCAUGGUCCCAGCCUCCUCGGUGGCGCCGGCUGGGCAACAUUCCGAGGGGACCGUCCCCUCGGUAUUGGCGAAUGGGACCCA, for which the self-cleavage is 0.612. On to GGCCGGCAUGGUCCCAGCCUCCUCGGUGGCGCCGGCUGGGCAACAUUCCGAGGGGACCGUCCCCUCGGUACUGGCGAAUGGGACCCA, for which the self-cleavage was 0.85.

GGCCGGCAUGGUCCCAGCCUCCUCGGUGGCGCCGGCUGGGCAACAUUCCGAGGGGACCGUCCCCUCGGUAGUGGCGAAUGGGACCCA: the self-cleavage was 0.475. As to GGCCGGCAUGGUCCCAGCCUCCUCGGUGGCGUCGGCUGGGCAACAUUCCGAGGGGACCGUCCCCUCGGUAAUGGCGAAUGGGACCCA, the self-cleavage is 0.743. The result for GGCCGGCAUGGUCCCAGCCUCCUCGGUGGCGACGGCUGGGCAACAUUCCGAGGGGACCGUCCCCUCGGUAAUGGCGAAUGGGACCCA reads 0.326; that for GGCCGGCAUGGUCCCAGCCUCCUCGGUGGCGGCGGCUGGGCAACAUUCCGAGGGGACCGUCCCCUCGGUAAUGGCGAAUGGGACCCA, 0.203.

Turning to GGCCGGCAUGGUCCCAGCCUCCUCGGUGGCGCCGGCUGGGCAACAUUCCGAGGGGACCGUCCCCUCGGUGAUGGCGAAUGGGACCCA, the self-cleavage was determined as 0.665. Regarding GGCCGGCAUGGUCCCAGCCUCCUCGGUGGCGCCUGCUGGGCAACAUUCCGAGGGGACCGUCCCCUCGGUAAUGGCGAAUGGGACCCA, the self-cleavage was 0.525. GGCCGGCAUGGUCCCAGCCUCCUCGGUGUCGCCGGCUGGGCAACAUUCCGAGGGGACCGUCCCCUCGGUAAUGGCGAAUGGGACCCA: the self-cleavage stood at 0.119. With GGCCGGCAUGGUCCCAGCCUCCUCGGUGACGCCGGCUGGGCAACAUUCCGAGGGGACCGUCCCCUCGGUAAUGGCGAAUGGGACCCA, the self-cleavage came out at 0.208.

As to GGCCGGCAUGGUCCCAGCCUCCUCGGUGGCGCCGGCUGGGCAACAUUCCGAGGGGACCGUCCCCUCAGUAAUGGCGAAUGGGACCCA, the self-cleavage is 0.696. GGCCGGCAUGGUCCCAGCCUCCUCGGUGGCGCCGGCUGGGCAACAUUCCGAGGGGACGGUCCCCUCGGUAAUGGCGAAUGGGACCCA: the self-cleavage was determined as 0.906. Take GGCCGGCAUGGUCCCAGCCUCCUCGGUGGCGCCGGCUGGGCAACAUUCCGAGGGGACAGUCCCCUCGGUAAUGGCGAAUGGGACCCA: the self-cleavage was 1.06. Take GGCCGGCAUGGUCCCAGCCUCCUCGGUGGCGCCGGCUGGGCAACAUUCGGAGGGGACCGUCCCCUCGGUAAUGGCGAAUGGGACCCA: the self-cleavage was found to be 0.87. As to GGCCGGCAUGGUCCCAGCCUCCUCGGUGGCGCCGGCUGGGCAACAUUCUGAGGGGACCGUCCCCUCGGUAAUGGCGAAUGGGACCCA, the self-cleavage came out at 0.935. The result for GGCCGGCAUGGUCCCAGCCUCCUCGGUGGCGCCGGCUGGGCAACAUUCCGAGGGGACCGUCCCCUCGGUAAUGGCGAAUGGGACCGA reads 0.886; that for GGCCGGCAUGGUCCCAGCCUCCUCGGUGGCGCCGGCUGGGCAACAUUCCGAGGGGACCGUCCCCUCGGUAAUGGCGAAUGGGACCUA, 0.831; that for GGCCGGCAUGGUCCCAGCCUCCUCGGUGGCGCCGGCUUGGCAACAUUCCGAGGGGACCGUCCCCUCGGUAAUGGCGAAUGGGACCCA, 0.435. For GGCCGGCAUGGUCCCAGCCUCCUCGGUGGCGCCGGCUCGGCAACAUUCCGAGGGGACCGUCCCCUCGGUAAUGGCGAAUGGGACCCA, the self-cleavage came out at 0.151. In the case of GGCCGGCAUGGUCCCAGCCUCCUCGGUGGUGCCGGCUGGGCAACAUUCCGAGGGGACCGUCCCCUCGGUAAUGGCGAAUGGGACCCA, the self-cleavage is 0.415. GGCCGGCAUGGUCCCAGCCUCCUCGGUGGAGCCGGCUGGGCAACAUUCCGAGGGGACCGUCCCCUCGGUAAUGGCGAAUGGGACCCA: the self-cleavage was 0.623. The result for GGCCGGCAUGGUCCCAGCCUCCUCGGUGGCGCCGGCUGGGCAACAUUCCGAGGGGACCGUCCCCUCGGUAAUGGCGGAUGGGACCCA reads 0.929; that for GGCCGGCAUGGUCCCAGCCUCCUCGGUGGCGCCGGCUGGGCAACAUUCCGAGGGGACCGUCCCCUCGGUAAUGGCGUAUGGGACCCA, 0.447. With GGCCGGCAUGGUCCCAGCCUCCUCGGUGGCGCCGGCUGGGCAACAUUCCGAGGGGACCAUCCCCUCGGUAAUGGCGAAUGGGACCCA, the self-cleavage was 0.903.

As to GGCCGGCAUGGUCCCAGCCUCCUCGGUGGCGCCGGCUGGGCAACAUUCCGAGGGGACCCUCCCCUCGGUAAUGGCGAAUGGGACCCA, the self-cleavage turned out to be 0.87. For the variant GGCCGGCAUGGUCCCAGCCUCCUCGGUGGCGCCGGCUGGGCAACAUUCCGAGGGGACCGUCCCCUCGGUAAUGGGGAAUGGGACCCA, the self-cleavage was determined as 0.227. GGCCGGCAUGGUCCCAGCCUCCUCGGUGGCGCCGGCUGGGCAACAUUCCGAGGGGACCGUCCCCUCGGUAAUGGUGAAUGGGACCCA: the self-cleavage was found to be 0.262.

For GGCCGGCAUGGUCCCAGCCUCCUCGGUGGCGCUGGCUGGGCAACAUUCCGAGGGGACCGUCCCCUCGGUAAUGGCGAAUGGGACCCA, the self-cleavage was 0.867. The result for GGCCGGCAUGGUCCCAGCCUCCUCGGUGGCGCCGGCUGGGCAACAUUCCGAGGCGACCGUCCCCUCGGUAAUGGCGAAUGGGACCCA reads 0.782; that for GGCCGGCAUGGUCCCAGCCUCCUCGGUGGCGCCGGCUGGGCAACAUUCCGAGGUGACCGUCCCCUCGGUAAUGGCGAAUGGGACCCA, 0.941.

For GGCCGGCAUGGUCCCAGCCUCCUCGGUGGCGCCGGCUGGGCAACAUUCCGAGGGGACCGUCCCCUCGGUAAUGGCGAAUGGGAGCCA, the self-cleavage was 0.615. In the case of GGCCGGCAUGGUCCCAGCCUCCUCGGUGGCGCCGGCUGGUCAACAUUCCGAGGGGACCGUCCCCUCGGUAAUGGCGAAUGGGACCCA, the self-cleavage was determined as 0.9. The same measure for GGCCGGCAUGGUCCCAGCCUCCUCGGUGGCGCCGGCUGGACAACAUUCCGAGGGGACCGUCCCCUCGGUAAUGGCGAAUGGGACCCA: 0.912; for GGCCGGCAUGGUCCCAGCCUCCUCGGUGGCGCCGGCUGGGCAACAUUCCGAGGGGCCCGUCCCCUCGGUAAUGGCGAAUGGGACCCA: 1.25.

In the case of GGCCGGCAUGGUCCCAGCCUCCUCGGUGGCGCCGGCUGGGCAACAUUCCGAGGGGUCCGUCCCCUCGGUAAUGGCGAAUGGGACCCA, the self-cleavage was 1.23.
